Data published in article PMC5389570.

Target: RPA heterotrimer (RPA70/RPA32/RPA14) (Homo sapiens) (UniProt P27694+P15927+P35244)
Assay: EMSA

Sequence of RPA heterotrimer (RPA70/RPA32/RPA14) (Homo sapiens) (P27694 whole entry, chain 1 of 3): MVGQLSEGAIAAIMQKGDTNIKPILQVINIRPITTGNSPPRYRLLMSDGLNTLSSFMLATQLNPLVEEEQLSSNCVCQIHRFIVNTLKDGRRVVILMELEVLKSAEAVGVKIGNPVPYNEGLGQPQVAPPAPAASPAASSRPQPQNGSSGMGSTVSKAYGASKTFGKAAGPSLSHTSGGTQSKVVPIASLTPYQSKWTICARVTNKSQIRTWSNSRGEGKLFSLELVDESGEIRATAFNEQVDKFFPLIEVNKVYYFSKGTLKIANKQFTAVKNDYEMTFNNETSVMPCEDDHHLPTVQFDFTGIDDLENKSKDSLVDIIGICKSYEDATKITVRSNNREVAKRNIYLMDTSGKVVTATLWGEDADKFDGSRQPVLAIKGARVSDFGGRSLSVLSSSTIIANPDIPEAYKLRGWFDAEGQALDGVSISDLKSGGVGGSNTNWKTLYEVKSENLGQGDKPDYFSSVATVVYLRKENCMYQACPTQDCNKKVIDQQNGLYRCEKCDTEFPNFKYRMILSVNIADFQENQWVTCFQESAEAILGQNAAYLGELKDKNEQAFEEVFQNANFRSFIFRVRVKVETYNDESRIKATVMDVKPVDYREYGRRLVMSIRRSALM
Sequence of RPA heterotrimer (RPA70/RPA32/RPA14) (Homo sapiens) (P15927 whole entry, chain 2 of 3): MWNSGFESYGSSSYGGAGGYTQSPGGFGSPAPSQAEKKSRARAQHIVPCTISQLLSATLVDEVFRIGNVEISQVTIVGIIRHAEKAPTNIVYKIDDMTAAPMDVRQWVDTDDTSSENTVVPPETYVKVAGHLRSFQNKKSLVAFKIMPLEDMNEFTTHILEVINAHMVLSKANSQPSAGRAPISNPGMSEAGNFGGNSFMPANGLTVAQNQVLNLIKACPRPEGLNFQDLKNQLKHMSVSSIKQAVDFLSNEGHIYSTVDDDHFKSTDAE
Sequence of RPA heterotrimer (RPA70/RPA32/RPA14) (Homo sapiens) (P35244 whole entry, chain 3 of 3): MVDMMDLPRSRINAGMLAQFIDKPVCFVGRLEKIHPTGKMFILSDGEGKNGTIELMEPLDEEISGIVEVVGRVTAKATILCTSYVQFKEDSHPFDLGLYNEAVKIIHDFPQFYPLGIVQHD

TTTTTTTTTTTTTTTTTTTTTTTTTTTTTTTTTTTTTTTTGGTCGGAGTTAGAGTAGGGTCGGAGTTAGAGTAGCCAGTA [S8 (80-mer)]
binding signal (fold vs RPA alone): 2
